Fold diff data for one molecule are collected here from patent US20220332804A1 (CSL INNOVATION, published 2022).

Experiment in all cases: SPR, KD relative to WT C2;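 further: biacore SPR at 37 °C, anti-C2 mAbs captured on anti-human IgG chips with alanine or serine point mutants of C2 as analyte, KD from 1:1 fit compared with wild-type C2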
Background: In SPR one partner is held on a chip, and binding of the other changes the refractive index at the surface.

One assay concerns the target T1, human C2 K457A (human, UniProt P06681 21-752).
T1 sequence: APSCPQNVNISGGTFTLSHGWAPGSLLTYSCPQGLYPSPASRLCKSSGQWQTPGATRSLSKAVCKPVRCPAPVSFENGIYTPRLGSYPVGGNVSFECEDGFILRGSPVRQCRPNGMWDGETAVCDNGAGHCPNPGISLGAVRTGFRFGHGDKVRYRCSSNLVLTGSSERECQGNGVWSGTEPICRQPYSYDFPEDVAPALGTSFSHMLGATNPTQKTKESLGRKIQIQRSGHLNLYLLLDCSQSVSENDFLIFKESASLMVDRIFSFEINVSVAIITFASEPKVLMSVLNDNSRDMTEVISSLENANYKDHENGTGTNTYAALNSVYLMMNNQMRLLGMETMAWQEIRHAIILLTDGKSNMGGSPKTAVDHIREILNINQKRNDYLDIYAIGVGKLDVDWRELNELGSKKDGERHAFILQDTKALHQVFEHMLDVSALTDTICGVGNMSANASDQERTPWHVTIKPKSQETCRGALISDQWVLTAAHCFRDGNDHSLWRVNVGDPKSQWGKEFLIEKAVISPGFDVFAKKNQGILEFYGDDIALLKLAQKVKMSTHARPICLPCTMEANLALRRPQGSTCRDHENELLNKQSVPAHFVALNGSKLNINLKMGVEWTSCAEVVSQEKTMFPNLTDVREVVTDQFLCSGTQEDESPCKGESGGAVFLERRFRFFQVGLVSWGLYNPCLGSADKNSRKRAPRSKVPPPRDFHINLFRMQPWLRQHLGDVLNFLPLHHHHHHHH

Another assay addresses T2, human C2 D282A (human, UniProt P06681 21-752).
T2 sequence: T1 sequence with D262A, A437K

In a further assay the target is T3, human C2 I272A (human, UniProt P06681 21-752).
T3 sequence: T1 sequence with I252A, A437K

A further assay concerns the target T4, human C2 S428A (human, UniProt P06681 21-752).
T4 sequence: T1 sequence with S408A, A437K

Residue numbers refer to the chain shown, from its start.

B1: RF16-242 (antibody, human IgG4 S228P, lambda, V domains shown)
VH: EVQLLQSGAEVKKPGESLKISCKGSGYSFTSYWIGWVRQMPGKGLEWMGIIYPGDSDTRYSPSFQGQVTISADKSISTAYLQWSSLKASDTAMYYCARRGHYGDYFDYWGQGTLVTVSS
VL: SYELTQPPSVSVSPGQTARITCSGDALPKKYAYWYHQKSGQAPVLVIYEDRRRPSEIPERFSGSSSGTMATLTITGAQVEDEGVYFCYSRDRAGNQRVFGGGTQLTVLG
notes: pH-dependent anti-C2 antibody from a phage display library
In the case of B1, the Fold diff in the assay with human C2 K457A came to 33 fold; in the assay with human C2 D282A, 1 fold; with human C2 I272A, 1 fold; in the assay with human C2 S428A it was 3 fold.
